Laboratory results taken from publication PMC11472163, “Crystal structure and nucleic acid binding mode of CPV NSP9: implications for viroplasm in Reovirales”.

Experiments:
[1] = biological target: BmCPV1 NSP9^ΔC (1–286 amino acid residues, lacking residues 287–320), expressed in E. coli (Bombyx mori cypovirus 1 (BmCPV1)); experiment: AUC
[2] = biological target: BmCPV1 NSP9^ΔC (1–286 amino acid residues, lacking residues 287–320), expressed in E. coli (Bombyx mori cypovirus 1 (BmCPV1)); experiment: SEC; […]; 10 mM HEPES pH 7.5, 100 mM NaCl; […]
NSP9ΔC [3] = biological target: T1, NSP9ΔC (Bombyx mori cypovirus 1 (BmCPV1), UniProt O72505 1-286); experiment: EMSA; two sequential bands; 2:1 dimer:NA; […]; SEC: 10 mM HEPES pH 7.5, 100 mM NaCl; conditions: protein: recombinant; chain copies: 2; label: 5' 6-FAM
NSP9ΔC [4] = biological target: T1, NSP9ΔC; experiment: EMSA; no significant difference from DNA; […]; SEC: 10 mM HEPES pH 7.5, 100 mM NaCl; conditions: protein: recombinant; chain copies: 2; label: 5' 6-FAM
NSP9ΔC [5] = biological target: T1, NSP9ΔC; experiment: EMSA; 1:1 NSP9ΔC dimer:ssDNA; […]; SEC: 10 mM HEPES pH 7.5, 100 mM NaCl; conditions: protein: recombinant; chain copies: 2; label: 5' 6-FAM (EMSA)

BmCPV1 NSP9^ΔC (1–286 amino acid residues, lacking residues 287–320), expressed in E. coli (domain or fragment)
stoichiometry N [1]: 2 | stoichiometry N [2]: 2

AGUAAAUCCCAGGCGCUCGGGUCGUUAGCC (ssRNA) [30 nt ssRNA]
binding result (NSP9ΔC [3]): binds

AGUAAGCUGUUAGCC (ssRNA) [15 nt ssRNA]
binding result (NSP9ΔC [4]): binds

AGTAAATCCCAGGCGCTCGGGTCGTTAGCC (ssDNA) [30 nt ssDNA]
binding result (NSP9ΔC [3]): binds

AGTAAGCTGTTAGCC (ssDNA) [15 nt ssDNA]
binding result (NSP9ΔC [5]): binds
